# In PMC4573519 (PLoS ONE, 2015):
# T1: Asialofetuin (fetuin lacking sialic acid), biotinylated (bovine, UniProt P12763 19-359)
# T1 construct: source: bought: Sigma-Aldrich
# T1 sequence: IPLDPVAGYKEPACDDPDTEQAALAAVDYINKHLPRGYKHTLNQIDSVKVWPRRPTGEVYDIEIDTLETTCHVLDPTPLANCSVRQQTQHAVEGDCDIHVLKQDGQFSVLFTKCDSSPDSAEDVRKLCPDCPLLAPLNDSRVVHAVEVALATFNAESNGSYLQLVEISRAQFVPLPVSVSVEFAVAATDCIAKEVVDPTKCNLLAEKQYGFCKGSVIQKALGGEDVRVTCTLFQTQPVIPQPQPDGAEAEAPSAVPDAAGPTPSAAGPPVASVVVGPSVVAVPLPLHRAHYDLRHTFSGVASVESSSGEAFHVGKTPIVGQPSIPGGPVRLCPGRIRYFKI
# T2: Fetuin (bovine serum glycoprotein), biotinylated (bovine, UniProt P12763 19-359)
# T2 construct: source: bought: Sigma-Aldrich
# T2 sequence: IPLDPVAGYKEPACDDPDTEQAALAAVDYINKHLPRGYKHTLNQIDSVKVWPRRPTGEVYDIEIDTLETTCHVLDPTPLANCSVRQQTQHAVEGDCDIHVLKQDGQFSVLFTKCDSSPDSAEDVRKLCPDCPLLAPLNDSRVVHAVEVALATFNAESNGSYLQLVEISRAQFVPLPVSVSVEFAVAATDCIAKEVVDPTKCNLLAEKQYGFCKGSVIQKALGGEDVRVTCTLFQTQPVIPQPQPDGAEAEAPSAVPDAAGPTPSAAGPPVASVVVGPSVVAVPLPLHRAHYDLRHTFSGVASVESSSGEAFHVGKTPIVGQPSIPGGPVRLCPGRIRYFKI
# B1: S2(PtxB1)S4his recombinant dimer of pertussis toxin subunits S2 (PtxB1 form) and S4 (complex)
# chain 1: STPGIVIPPQEQITQHGGPYGRCANKTRALTVAELRGSGDLQEYLRHVTRGWSIFALYDGTYLGGEYGGVIKDGTPGGAFDLKTTFCIMTTRNTGQPATDHYYSNVTATRLLSSTNSRLCAVFVRSGQPVIGACTSPYDGKYWSMYSRLRKMLYLIYVAGISVRVHVSKEEQYYDYEDATFETYALTGISICNPGSSLC
# chain 2: DVPYVLVKTNMVVTSVAMKPYEVTPTRMLVCGIAAKLGAAASSPDAHVPFCFGKDLKRPGSSPMEVMLRAVFMQQRPLRMFLGPKQLTFEGKPALELIRMVECSGKQDCP
# B2: S3S4his recombinant dimer of pertussis toxin subunits S3 and S4 (complex)
# chain 1: VAPGIVIPPKALFTQQGGAYGRCPNGTRALTVAELRGNAELQTYLRQITPGWSIYGLYDGTYLGQAYGGIIKDAPPGAGFIYRETFCITTIYKTGQPAADHYYSKVTATRLLASTNSRLCAVFVRDGQSVIGACASPYEGRYRDMYDALRRLLYMIYMSGLAVRVHVSKEEQYYDYEDATFQTYALTGISLCNPAASIC
# chain 2: DVPYVLVKTNMVVTSVAMKPYEVTPTRMLVCGIAAKLGAAASSPDAHVPFCFGKDLKRPGSSPMEVMLRAVFMQQRPLRMFLGPKQLTFEGKPALELIRMVECSGKQDCP
# B3: S2(PtxB2)S4his recombinant dimer of pertussis toxin subunits S2 (PtxB2 form) and S4 (complex)
# chain 1: STPGIVIPPQEQITQHGSPYGRCANKTRALTVAELRGSGDLQEYLRHVTRGWSIFALYDGTYLGGEYGGVIKDGTPGGAFDLKTTFCIMTTRNTGQPATDHYYSNVTATRLLSSTNSRLCAVFVRSGQPVIGACTSPYDGKYWSMYSRLRKMLYLIYVAGISVRVHVSKEEQYYDYEDATFETYALTGISICNPGSSLC
# chain 2: DVPYVLVKTNMVVTSVAMKPYEVTPTRMLVCGIAAKLGAAASSPDAHVPFCFGKDLKRPGSSPMEVMLRAVFMQQRPLRMFLGPKQLTFEGKPALELIRMVECSGKQDCP
# Experiments:
# [1] = biological target: T1, Asialofetuin (fetuin lacking sialic …); test: BLI; settings: both partners purified
# [2] = biological target: T2, Fetuin (bovine serum glycoprotein), …; test: BLI; settings: both partners purified
Binder,binding result [1],binding result [2]
B1,binds,binds
B2,binds,binds
B3,binds,binds
